The text below walks through data of US20050186197A1.

For experiment [1], the target named is class C β-lactamase P99 from Enterobacter cloacae (Enterobacter cloacae) (UniProt P05364). Description: β-lactamase inhibition assay (cephalosporin C).
Experiment [2] concerns the target TEM-1 β-lactamase (UniProt P62593). Description: β-lactamase inhibition assay (cephalosporin C).
Experiment [3] concerns the target T1, TEM-1 β-lactamase, P62593.
T1 chain: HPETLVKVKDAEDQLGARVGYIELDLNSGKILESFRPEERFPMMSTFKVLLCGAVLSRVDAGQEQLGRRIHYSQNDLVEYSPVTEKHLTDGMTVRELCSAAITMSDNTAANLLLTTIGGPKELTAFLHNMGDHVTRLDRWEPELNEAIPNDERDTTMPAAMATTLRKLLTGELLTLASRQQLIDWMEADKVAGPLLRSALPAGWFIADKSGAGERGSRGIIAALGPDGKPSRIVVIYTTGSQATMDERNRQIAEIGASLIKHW
Description: ratio of Ki values, β-lactamase inhibition assay.

The target of experiment [4] is T1, TEM-1 β-lactamase, P62593. The experiment can be described thus: β-lactamase inhibition assay (cephalosporin C), Ki from IC50 by Cheng-Prusoff.
In experiment [5] the target is T2, class C β-lactamase P99 from Enterobacter cloacae (Enterobacter cloacae), P05364. Described as above.
T2 sequence (P05364 21-381 limits assumed): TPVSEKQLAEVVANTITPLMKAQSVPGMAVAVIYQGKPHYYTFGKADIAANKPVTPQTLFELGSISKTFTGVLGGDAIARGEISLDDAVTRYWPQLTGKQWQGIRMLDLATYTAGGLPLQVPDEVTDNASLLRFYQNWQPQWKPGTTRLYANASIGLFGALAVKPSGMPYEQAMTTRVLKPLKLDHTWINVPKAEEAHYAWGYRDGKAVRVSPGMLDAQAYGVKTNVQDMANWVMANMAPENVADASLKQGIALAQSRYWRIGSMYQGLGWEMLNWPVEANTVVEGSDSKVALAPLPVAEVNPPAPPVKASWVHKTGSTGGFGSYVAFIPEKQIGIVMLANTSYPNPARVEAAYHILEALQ
The target of experiment [6] is T2, class C β-lactamase P99 from …. Description: ratio of Ki values, β-lactamase inhibition assay.
The target in experiment [7] is T1, TEM-1 β-lactamase, P62593. Description: β-lactamase inhibition assay, disulfide-bonded peptide.

Positions of bridges follow the written chain, without caps; N, C: chain ends. No end group written: not given here.

What is called Ki is a dissociation constant, usually derived from enzyme kinetics or from competition with a known ligand. RR-NH2 (peptide): the inhibitory constant (Ki) in experiment [1] and in experiment [2] was > 2000 µM throughout.

B1: RRGHYY-NH2 (peptide)
peptide: RRGHYY-NH2
With B1, in experiment [3], the fold improvement in affinity relative to disulfide bonded …-NH2 was found to be 25 fold. The fold improvement in affinity relative to …-NH2 in experiment [3] came out at 2 fold. Also, the figures for the Ki in experiment [4] and in experiment [5] were 136 µM and 140 µM, respectively.

B2: …-NH2 (peptide)
peptide: HSAYSDTRRGDYG-NH2
In the case of B2, the fold increase in binding affinity relative to the cysteine peptide …-NH2 in experiment [3] was 10 fold. The Ki in experiment [4] stood at 298 µM; in experiment [5], 254 µM.

B3: AAGHYY-NH2 (peptide)
peptide: AAGHYY-NH2
As for B3, the fold increase in Ki relative to RRGHYY-NH2 in experiment [3] and in experiment [6] was 3 fold in each case. For the same molecule, the Ki worked out at 438 µM in experiment [4] and 468 µM in experiment [5].

B4: …-NH2 (disulfide-bonded soluble peptide) (peptide)
peptide: HSACSDTRRGDCG-NH2
modifications: disulfide 4-12 (inferred)
Turning to B4, the Ki in experiment [7] was 3500 µM.
